The text below walks through data of US20210238253A1 (GUANGDONG ZHAOTAI INVIVO BIOMEDICINE, published 2021).

Substitutions are numbered along the chain they refer to.

Assay [1] has as its target T1, hCD19-his (human CD19 recombinant protein, Pro20-Lys291, His tag at C-terminus) (human, UniProt P15391 20-291).
T1 construct: range 20-291; also called human CD19-His
T1 sequence (looked up): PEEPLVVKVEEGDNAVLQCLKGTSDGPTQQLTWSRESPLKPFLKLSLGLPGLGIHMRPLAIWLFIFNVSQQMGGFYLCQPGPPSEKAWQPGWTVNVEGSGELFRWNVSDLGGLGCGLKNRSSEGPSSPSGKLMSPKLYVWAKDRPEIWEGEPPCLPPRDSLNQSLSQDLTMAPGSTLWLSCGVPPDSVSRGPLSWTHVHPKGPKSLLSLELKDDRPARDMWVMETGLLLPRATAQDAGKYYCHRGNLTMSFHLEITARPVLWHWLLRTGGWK
Description: ELISA, coated hCD19-His. As for the experimental part:
The antibodies were screened by ELISA according to Example 2. Briefly, […] of hCD19-His (ACRO) were spread and incubated. The purified antibodies were serially diluted to bind the incubated antigen. The binding signal of each antibody could be detected with HRP-labeled goat anti-rat Fc antibody.
Graphpad Prism software was used to calculate the fitting data.
On the technique in general: ELISA stands for enzyme-linked immunosorbent assay.

The target in assay [2] is T2, CD19 expressed by Nalm6 cells (UniProt P15391 20-556, limits assumed).
T2 construct: whole, on cells; Endogenous CD19 on tumor cell lines; also called Nalm6/GL; CD19 antigen on RAJI-GL and NALM6-GL tumor cells
T2 sequence (looked up): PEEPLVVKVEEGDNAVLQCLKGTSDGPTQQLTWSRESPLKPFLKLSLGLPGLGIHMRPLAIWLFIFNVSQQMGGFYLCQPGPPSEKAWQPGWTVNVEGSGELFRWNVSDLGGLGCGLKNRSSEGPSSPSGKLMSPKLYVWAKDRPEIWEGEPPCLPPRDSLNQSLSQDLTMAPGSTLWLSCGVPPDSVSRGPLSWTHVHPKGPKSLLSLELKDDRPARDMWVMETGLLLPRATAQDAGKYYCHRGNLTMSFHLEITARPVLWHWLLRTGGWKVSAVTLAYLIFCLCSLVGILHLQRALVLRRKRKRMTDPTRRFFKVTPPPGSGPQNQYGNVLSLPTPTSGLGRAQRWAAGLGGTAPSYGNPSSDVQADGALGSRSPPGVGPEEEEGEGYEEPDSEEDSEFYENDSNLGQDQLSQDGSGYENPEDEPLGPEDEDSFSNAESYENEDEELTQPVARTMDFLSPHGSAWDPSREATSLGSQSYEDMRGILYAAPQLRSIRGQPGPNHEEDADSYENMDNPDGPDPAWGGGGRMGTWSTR
Description: flow cytometry on Nalm6 cells. As for the experimental part: The CD19-expressing tumor cells Nalm6 in logarithmic growth phase were collected and resuspended in PBS at a cell density of 10⁵/well, 100 μl/well. The diluted CD19 antibodies were added into the well and incubated at 4° C. for 1 hour. The cells were washed three times with flow cytometry wash buffer. Anti-rat IgG-Alexa Fluor 647 (Abcam, Cat #ab150163) was added and incubated at 4° C. for 1 hour. The cells were washed three times with flow cytometry wash buffer. The samples were analyzed by flow cytometry. The results are shown in FIG. 3 and Table 4, as follows: […]
Background: A flow cytometer gives signals particle by particle.

The target of assay [3] is T1, hCD19-his (human CD19 recombinant …). Description: ELISA, coated hCD19-His, fully humanized antibody titrated. As for the experimental part: According to the method described in Example 4, 0.5 μg/ml of hCD19-His was spread and incubated. The fully humanized antibodies were serially diluted and added to bind the incubated antigen. The binding signal of each antibody could be detected with HRP-labeled goat […] Fc antibody. The results are shown in FIG. 5 and Table 5, as follows: […]

B1: 19D6 (antibody, V domains shown)
VH: QVQLVESGGGVVQPGRSLRLSCAASGFTFSRHGMHWVRQAPGKGLEWVAVIWYDGSNKYYVDSVKGRFTISRDNSKNTLDLQMNSLRAEDTAVYYCARRSITWDGAFDIWGQGTMVTVSS
VL: DIQMTQSPSTLSASVGDRVTVTCRASQSIRSWLAWYQQKPGKAPKLLIYKASSLESGVPSRFSGSGSGTEFTLTISSLQPDDFATYYCQQYNSAYTFGQGTKLEIK
notes: hybridoma mAb from H2L2 mouse (human variable, rat constant regions)
As for B1, the EC50 (as a rule, the midpoint of the concentration-response curve) in assay [1] was determined as 0.0737 µg/mL. Further, the “Maximum mean fluorescence intensity (30 µg/ml)” value in assay [2] came out at 10400.

B2: 17B6 fully humanized antibody (recombinant, human IgG1 / kappa) (antibody, V domains shown)
VH: QVQLVESGGGVVQPGRSLRLSCEASGFTFSRHGMHWVRQAPGKGLEWVAVIFYDGSQNYYADSVRGRFTISRDNSKNTLSLQMDSLRAEDTAVYYCARRSITWNGGFDIWGQGTMVTVSP
VL: B1 VL with V21I, R30S, T74A, S93R, A94F
Regarding B2, the half-maximal effective concentration (EC50) in assay [3] was 4.52 ng/mL.

B3: 31A2 fully humanized antibody (recombinant, human IgG1 / kappa) (antibody, V domains shown)
VH: B1 VH
VL: B1 VL with V21I, T22S, R30S
Regarding B3, in assay [3], the EC50 was determined as 4.46 ng/mL.

B4: 27F11 fully humanized antibody (recombinant, human IgG1 / kappa) (antibody, V domains shown)
VH: B1 VH with W52Y, D104N
VL: B1 VL with V21I, T22S, R30S
With B4, the EC50 in assay [3] was determined as 4 ng/mL.

B5: 11H8 fully humanized antibody (recombinant, human IgG1 / kappa) (antibody, V domains shown)
VH: B1 VH with K58Q, A88V, D104Y, A106G
VL: B1 VL with V21I, R30S, S60P
Regarding B5, the EC50 in assay [3] came to 2.63 ng/mL.

B6: 15F2 fully humanized antibody (recombinant, human IgG1 / kappa) (antibody, V domains shown)
VH: B1 VH
VL: B1 VL
Turning to B6, the half-maximal effective concentration (EC50) in assay [3] was determined as 3.78 ng/mL.

B7: 52F9 fully humanized antibody (recombinant, human IgG1 / kappa) (antibody, V domains shown)
VH: QVQLVESGGGVVQAGRSLRLSCAASGFTFSNYGIHWVRQAPGKGLEWVGVIWHDGSIKNYADFVKGRFTISRDNSEDTLYLQMNSLRAEDTAVYYCAREQGNYYGWGSYKAFDIWGQGTMVTVSS
VL: DIQLTQSPSFLSVFVGDRVTITCRASQGISNYLAWYQQKPGKAPELLLYATSTLQSGVPSRLSGSGSGTEFTLTLSSLQPEDFATYYCQQVYSFPYTFGQGTKLEIK
As to B7, the EC50 in assay [3] worked out at 7.92 ng/mL.
